From patent publication US8586034B2, “Cytomegalovirus disintegrin-like peptides” (priority 2004, dated 2013)

T1: β3 integrin (Homo sapiens, UniProt P05106)
T1 construct: endogenous in cells; host or cells: Normal Human Dermal Fibroblasts (NHDF), detergent lysate
T1 sequence (P05106 27-788): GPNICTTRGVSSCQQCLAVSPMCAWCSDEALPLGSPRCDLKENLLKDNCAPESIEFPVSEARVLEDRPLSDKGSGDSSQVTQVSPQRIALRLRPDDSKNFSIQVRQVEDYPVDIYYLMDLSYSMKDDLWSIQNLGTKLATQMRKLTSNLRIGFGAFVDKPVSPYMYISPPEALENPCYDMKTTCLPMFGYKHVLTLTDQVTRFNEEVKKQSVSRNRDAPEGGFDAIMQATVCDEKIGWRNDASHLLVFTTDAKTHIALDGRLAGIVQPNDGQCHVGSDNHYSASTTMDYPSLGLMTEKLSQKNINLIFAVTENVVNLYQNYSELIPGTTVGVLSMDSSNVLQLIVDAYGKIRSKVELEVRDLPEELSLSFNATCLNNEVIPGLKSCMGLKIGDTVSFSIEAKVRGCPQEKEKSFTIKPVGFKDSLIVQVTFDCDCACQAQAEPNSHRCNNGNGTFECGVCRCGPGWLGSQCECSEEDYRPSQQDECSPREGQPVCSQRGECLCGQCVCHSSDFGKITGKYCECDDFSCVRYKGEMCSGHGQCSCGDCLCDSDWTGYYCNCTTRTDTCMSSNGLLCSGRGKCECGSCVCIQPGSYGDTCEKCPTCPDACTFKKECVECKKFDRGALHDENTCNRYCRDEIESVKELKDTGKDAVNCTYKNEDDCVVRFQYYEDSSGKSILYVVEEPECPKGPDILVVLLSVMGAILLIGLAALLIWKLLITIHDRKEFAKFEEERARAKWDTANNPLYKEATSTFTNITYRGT


What was measured:
[1] = Solubility of purified gBDLD in dialysis buffer; type: physicochemical; conditions: 55 mM MES, pH 5.5, 300 mM NaCl
Procedure: DNA sequence corresponding to amino acids 57-146 of HCMV AD 169 glycoprotein B disintegrin-like domain (“gBDLD”) was cloned into the bacterial expression vector pET-28a containing an N-terminal His-Tag with thrombin cleavage site and kanamycin resistance. (Commercially available from Novagen, San Diego, Calif.) gBDLD production was induced by the addition of 1 mM isopropyl-βD-thiogalactopyranoside (IPTG). E. coli Tuner strain containing pET-28a:gBDLD was grown at 37° C. in Luria-Bertani medium containing kanamycin (50 μg/mL) to an optical density at 600 nm of approximately 0.6. IPTG (1 mM) was added and the plates were incubated continuously for 4 h at 37° C. Cells were harvested by centrifugation at 4000 r/min for 10 min and pellets were resuspended in 1% Triton X-100/Ni-NTA buffer (300 mM NaCl/50 mM Tris-HCL pH 7.9) and lysed by 3×60 s bursts of sonication. The lysate was centrifuged at 15,000 r/min for 15 minutes at 4° C. The 8M urea/Ni-NTA fraction was then poured into a chromatography column containing nickel-nitriloacetic acid agarose (Ni-NTA) beads at 4° C. and allowed to flow through. […] Fractions containing protein were determined by measuring the absorbance of each fraction at 214 nm. Fractions that corresponded to absorption peaks were analyzed by sodium dodecyl sulfate polyacrylamide electrophoresis (SDS-PAGE) to determine the size of the protein. […]

[2] = tested on: HCMV-GFP; experiment: HCMV infectivity assay (HCMV-GFP, flow cytometry); type: cell-based, Human cytomegalovirus; conditions: human fibroblasts
Procedure: NHDFs were washed three times with MES buffer followed by the addition of gBDLD for 60 minutes at 37° C. Cells were then washed twice with MES buffer, three times with PBS and inoculated with HCMV-GFP (MOI=0.5) in serum-free DMEM. After 60 minutes, virus was removed and a 30 second, low-pH citrate wash was performed to remove extracellular virus. Twenty-four hour, post-infection cells were harvested and flow cytometry was performed to assay for GFP-positive cells.
FIG. 9 is a graph depicting the results of an assay to determine if gBDLD blocks NHDF cells from infection with HCMV. The infectivity assay was performed as described in the earlier examples. Briefly, gBDLD or BSA was added to human fibroblasts for 60 minutes. Cells were then washed, followed by HCMV-GFP challenge for 60 minutes. Cells were then citrate washed to remove any extracellular virus and incubated overnight. Flow cytometry was performed to assay for GFP positive versus total cells. As is readily observed from FIG. 9, gBDLD exerts a dose-dependent inhibition of HCMV infectivity in the cells tested.

[3] = molecular target: Normal human dermal fibroblasts; experiment: Protein binding assay, gBDLD to fibroblasts (His-tag ELISA)
Procedure: Normal human dermal fibroblasts were chilled to 4° C., washed three times with cold MES buffer and blocked with 1 mg/mL bovine serum albumin (BSA) for 30 minutes at 4° C. Unbound BSA was removed with cold MES washes (×4). The indicated amounts of gBDLD were added to each well for 90 minutes at 4° C. Cells were then washed three times with cold MES, twice with cold (phosphate-buffered saline (PBS) and fixed with 3% paraformaldehyde. An ELISA was then performed probing with anti-His rabbit polyclonal antibody (Santa Cruz Biotechnology, Santa Cruz, Calif.) and anti-rabbit HRP (Pierce). Absorbance was measured at 405 nm.
FIG. 7 is a graph depicting the results of a gBDLD binding assay (performed as described previously). Here, binding was measured by absorbance at 405 nm. […] To generate the data, human fibroblasts were incubated with gBDLD for the indicated times at 4° C. Cells were then washed, fixed and an ELISA was performed probing for the gBDLD […] his-tag. […]
FIG. 8 is a graph depicting gBDLD binding to human fibroblasts. As is readily apparent from FIG. 8, this binding is dose-dependent and saturable. […] After three IVIES washes and two PBS washes, cells were fixed in 3% paraformaldehyde and a His-tag ELISA was performed to quantitate gBDLD bound to cells.

[4] = tested on: NHDF cells; experiment: Cytoskeletal rearrangement, actin staining with phalloidin; type: cell-based, human; conditions: compared to buffer alone
From the text: β1 integrins are known inducers of broad signal transduction events. […] To test the role of gBDLD in mediating signaling events, we stimulated NHDF cells with buffer alone, gBDLD, or a known cytoskeletal reorganizer (EGF), followed by actin staining with phalloidin.

[5] = molecular target: T2, β1 integrin (Homo sapiens, UniProt P05556); experiment: Integrin co-immunoprecipitation assay, β1; type: binding; conditions: human fibroblast lysates, nickel beads
T2 construct: endogenous in cells; host or cells: Normal Human Dermal Fibroblasts (NHDF), detergent lysate
T2 sequence (P05556 21-798): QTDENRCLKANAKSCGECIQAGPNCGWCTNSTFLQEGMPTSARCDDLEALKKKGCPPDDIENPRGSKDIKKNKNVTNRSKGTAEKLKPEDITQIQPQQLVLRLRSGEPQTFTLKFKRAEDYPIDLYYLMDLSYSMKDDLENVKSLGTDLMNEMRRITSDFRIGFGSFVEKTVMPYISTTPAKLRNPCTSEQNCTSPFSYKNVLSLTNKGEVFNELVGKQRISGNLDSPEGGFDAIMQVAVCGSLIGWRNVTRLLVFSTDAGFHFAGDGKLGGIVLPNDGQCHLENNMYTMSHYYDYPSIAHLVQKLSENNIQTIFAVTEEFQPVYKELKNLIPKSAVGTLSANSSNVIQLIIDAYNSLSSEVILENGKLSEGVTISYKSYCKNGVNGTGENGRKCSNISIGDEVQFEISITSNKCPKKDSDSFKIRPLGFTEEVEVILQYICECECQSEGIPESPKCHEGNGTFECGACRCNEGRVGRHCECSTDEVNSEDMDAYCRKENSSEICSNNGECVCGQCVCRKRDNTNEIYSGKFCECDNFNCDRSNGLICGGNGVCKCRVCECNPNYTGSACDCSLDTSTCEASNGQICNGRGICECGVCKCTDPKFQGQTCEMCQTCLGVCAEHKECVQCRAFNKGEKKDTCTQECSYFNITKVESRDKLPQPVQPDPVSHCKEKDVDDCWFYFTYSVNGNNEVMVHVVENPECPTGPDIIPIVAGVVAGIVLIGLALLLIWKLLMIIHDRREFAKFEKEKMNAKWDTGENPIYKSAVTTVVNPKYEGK
Procedure: (§1) A T-175 flask of NHDFs was grown to complete confluence, washed three times in MES buffer and lysed in 1 mL MES buffer+1% TX-100 (a detergent). Lysate was spun at 10,000 g for 10 minutes to remove cell debris. Cell lysate (350 μL) was then incubated with 20 μg gBDLD for 4 hours at 4° C. The lysate+gBDLD mixture was then incubated with 50 μL Ni beads overnight at 4° C. Nickel beads were then washed three times and protein eluted by boiling and then adding reducing SDS-PAGE buffer. Proteins were separated by SDS-PAGE and Western blotted for β1 integrin (Chemicon-1965) or β3 (Chemicon) as previously described.^48
(§2) To identify the cellular receptor for gBDLD we performed co-immunoprecipitation studies. Briefly, gBDLD was incubated with human fibroblast lysates and pulled down with nickel-conjugated agarose beads.
(§3) Because gBDLD contains a known β1 integrin binding motif, gBDLD bound to its cellular receptor was isolated by SDS-PAGE and then Western blotted for either β1 or β3 integrin. The resulting gels are shown in FIG. 10 (β1) and FIG. 11 (β3).

[6] = tested on: diI-labeled HCMV; type: cell-based, Human cytomegalovirus; conditions: gBDLD or BSA 320 μg/mL, soluble heparin 50 μg/mL; 24 hours post-infection
[7] = molecular target: T1, β3 integrin; experiment: Integrin co-immunoprecipitation assay, β3; type: binding; conditions: human fibroblast lysates, nickel beads
Procedure: as §1, §2, §3

Molecule | Solubility [1] | IC50 for HCMV neutralization [2] [µg/mL] | IC50 ([2]; read-out: IC50 for HCMV neutralization) [nM] | kinetics of gBDLD binding to human fibroblasts ([3]; 4° C., ELISA for his-tag) | concentration at which gBDLD binding to fibroblast monolayers reached saturation ([3]; 60 minutes, after BSA block) [µg/mL] | reorganization of the cytoskeleton [4] | interaction with β1 integrin (pull down, Western blot) [5] | HCMV fusion (dye transfer) and gene expression [6] | interaction with β3 integrin (pull down, Western blot) [7]
gBDLD: amino acids 57-146 of HCMV AD 169 glycoprotein B disintegrin-like domain, His-tagged, expressed in E. coli (protein, left off: small tags and cut ends, amino acids 57-146 of HCMV AD 169 glycoprotein B disintegrin-like domain, His-tagged, expressed in E. coli) VTSSEAVSHRANETIYNTTLKYGDVVGVNTTKYPYRVCSMAQGTDLIRFERNIICTSMKPINEDLDEGIMVVYKRNIVAHTFKVRVYQKV | approximately 1 mg/mL | 20.5 | 1960 | rapid kinetics | 12.5 | triggered a dramatic reorganization of the cytoskeleton | interacts | complete block | does not interact
EGF: known cytoskeletal reorganizer (protein, UniProt P01133 23-1207, looked up, Pro-epidermal growth factor, known cytoskeletal reorganizer) Pro-epidermal growth factor: PQHWSCPEGTLAGNGNSTCVGPAPFLIFSHGNSIFRIDTEGTNYEQLVVDAGVSVIMDFHYNEKRIYWVDLERQLLQRVFLNGSRQERVCNIEKNVSGMAINWINEEVIWSNQQEGIITVTDMKGNNSHILLSALKYPANVAVDPVERFIFWSSEVAGSLYRADLDGVGVKALLETSEKITAVSLDVLDKRLFWIQYNREGSNSLICSCDYDGGSVHISKHPTQHNLFAMSLFGDRIFYSTWKMKTIWIANKHTGKDMVRINLHSSFVPLGELKVVHPLAQPKAEDDTWEPEQKLCKLRKGNCSSTVCGQDLQSHLCMCAEGYALSRDRKYCEDVNECAFWNHGCTLGCKNTPGSYYCTCPVGFVLLPDGKRCHQLVSCPRNVSECSHDCVLTSEGPLCFCPEGSVLERDGKTCSGCSSPDNGGCSQLCVPLSPVSWECDCFPGYDLQLDEKSCAASGPQPFLLFANSQDIRHMHFDGTDYGTLLSQQMGMVYALDHDPVENKIYFAHTALKWIERANMDGSQRERLIEEGVDVPEGLAVDWIGRRFYWTDRGKSLIGRSDLNGKRSKIITKENISQPRGIAVHPMAKRLFWTDTGINPRIESSSLQGLGRLVIASSDLIWPSGITIDFLTDKLYWCDAKQSVIEMANLDGSKRRRLTQNDVGHPFAVAVFEDYVWFSDWAMPSVMRVNKRTGKDRVRLQGSMLKPSSLVVVHPLAKPGADPCLYQNGGCEHICKKRLGTAWCSCREGFMKASDGKTCLALDGHQLLAGGEVDLKNQVTPLDILSKTRVSEDNITESQHMLVAEIMVSDQDDCAPVGCSMYARCISEGEDATCQCLKGFAGDGKLCSDIDECEMGVPVCPPASSKCINTEGGYVCRCSEGYQGDGIHCLDIDECQLGEHSCGENASCTNTEGGYTCMCAGRLSEPGLICPDSTPPPHLREDDHHYSVRNSDSECPLSHDGYCLHDGVCMYIEALDKYACNCVVGYIGERCQYRDLKWWELRHAGHGQQQKVIVVAVCVVVLVMLLLLSLWGAHYYRTQKLLSKNPKNPYEESSRDVRSRRPADTEDGMSSCPQPWFVVIKEHQDLKNGGQPVAGEDGQAADGSMQPTSWRQEPQLCGMGTEQGCWIPVSSDKGSCPQVMERSFHMPSYGTQTLEGGVEKPHSLLSANPLWQQRALDPPHQMELTQ | – | – | – | – | – | triggered a dramatic reorganization of the cytoskeleton | – | – | –
